In publication PMC11098746 (2024):

Key:
Test in all cases: AVEXIS screen signal:noise (double-corrected)
[1] = target: T1, ADP285
T1 chain: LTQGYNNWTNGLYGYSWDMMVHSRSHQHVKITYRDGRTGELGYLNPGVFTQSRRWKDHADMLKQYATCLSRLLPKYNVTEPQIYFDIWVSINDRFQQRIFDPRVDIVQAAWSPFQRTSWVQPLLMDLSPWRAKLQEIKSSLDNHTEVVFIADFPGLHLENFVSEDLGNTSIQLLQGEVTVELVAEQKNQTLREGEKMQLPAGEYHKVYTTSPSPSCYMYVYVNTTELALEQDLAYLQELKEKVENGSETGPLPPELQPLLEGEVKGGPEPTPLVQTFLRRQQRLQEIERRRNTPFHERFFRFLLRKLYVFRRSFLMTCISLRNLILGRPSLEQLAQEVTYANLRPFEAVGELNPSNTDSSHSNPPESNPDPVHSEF

[2] = target: T2, ADP360
T2 chain: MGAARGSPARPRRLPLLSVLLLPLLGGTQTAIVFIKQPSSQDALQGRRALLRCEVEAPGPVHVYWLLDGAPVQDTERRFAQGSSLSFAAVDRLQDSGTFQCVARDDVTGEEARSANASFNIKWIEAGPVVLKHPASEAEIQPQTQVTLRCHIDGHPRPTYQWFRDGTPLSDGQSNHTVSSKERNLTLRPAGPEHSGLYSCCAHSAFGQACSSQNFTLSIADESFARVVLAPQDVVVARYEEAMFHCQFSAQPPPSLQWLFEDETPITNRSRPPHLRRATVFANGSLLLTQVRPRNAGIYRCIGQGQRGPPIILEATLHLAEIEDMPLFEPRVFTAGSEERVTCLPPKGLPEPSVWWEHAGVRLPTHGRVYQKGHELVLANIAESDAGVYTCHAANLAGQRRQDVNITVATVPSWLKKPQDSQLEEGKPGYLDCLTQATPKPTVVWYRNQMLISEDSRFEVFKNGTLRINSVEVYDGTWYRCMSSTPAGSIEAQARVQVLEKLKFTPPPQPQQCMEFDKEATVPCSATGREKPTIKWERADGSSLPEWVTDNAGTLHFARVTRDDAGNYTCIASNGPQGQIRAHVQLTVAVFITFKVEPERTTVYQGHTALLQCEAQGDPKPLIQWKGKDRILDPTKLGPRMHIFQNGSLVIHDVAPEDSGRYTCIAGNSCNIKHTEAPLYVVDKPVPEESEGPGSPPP

[3] = target: T3, ADP103
T3 chain: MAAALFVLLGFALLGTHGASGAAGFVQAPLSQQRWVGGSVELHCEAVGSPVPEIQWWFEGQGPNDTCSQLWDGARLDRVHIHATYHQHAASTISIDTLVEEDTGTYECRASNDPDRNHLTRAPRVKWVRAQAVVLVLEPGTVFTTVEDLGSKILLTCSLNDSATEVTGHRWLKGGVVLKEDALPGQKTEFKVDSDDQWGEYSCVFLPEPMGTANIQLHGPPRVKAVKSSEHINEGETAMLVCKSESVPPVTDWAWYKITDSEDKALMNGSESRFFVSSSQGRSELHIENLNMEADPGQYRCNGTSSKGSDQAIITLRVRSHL

[4] = target: T4, ADP101
T4 chain: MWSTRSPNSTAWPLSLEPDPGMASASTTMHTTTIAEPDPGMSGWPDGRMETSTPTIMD

[5] = target: T5, ADP325
T5 chain: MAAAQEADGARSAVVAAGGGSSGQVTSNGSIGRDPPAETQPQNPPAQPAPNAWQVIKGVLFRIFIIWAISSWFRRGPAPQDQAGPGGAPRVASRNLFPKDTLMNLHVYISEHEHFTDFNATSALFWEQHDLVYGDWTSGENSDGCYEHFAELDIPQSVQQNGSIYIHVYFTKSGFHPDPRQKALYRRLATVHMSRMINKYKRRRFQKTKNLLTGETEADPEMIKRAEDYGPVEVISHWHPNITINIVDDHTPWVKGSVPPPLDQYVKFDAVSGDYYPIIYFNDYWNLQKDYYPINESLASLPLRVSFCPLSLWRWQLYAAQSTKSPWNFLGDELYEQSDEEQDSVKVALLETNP

[6] = target: T6, ADP141
T6 chain: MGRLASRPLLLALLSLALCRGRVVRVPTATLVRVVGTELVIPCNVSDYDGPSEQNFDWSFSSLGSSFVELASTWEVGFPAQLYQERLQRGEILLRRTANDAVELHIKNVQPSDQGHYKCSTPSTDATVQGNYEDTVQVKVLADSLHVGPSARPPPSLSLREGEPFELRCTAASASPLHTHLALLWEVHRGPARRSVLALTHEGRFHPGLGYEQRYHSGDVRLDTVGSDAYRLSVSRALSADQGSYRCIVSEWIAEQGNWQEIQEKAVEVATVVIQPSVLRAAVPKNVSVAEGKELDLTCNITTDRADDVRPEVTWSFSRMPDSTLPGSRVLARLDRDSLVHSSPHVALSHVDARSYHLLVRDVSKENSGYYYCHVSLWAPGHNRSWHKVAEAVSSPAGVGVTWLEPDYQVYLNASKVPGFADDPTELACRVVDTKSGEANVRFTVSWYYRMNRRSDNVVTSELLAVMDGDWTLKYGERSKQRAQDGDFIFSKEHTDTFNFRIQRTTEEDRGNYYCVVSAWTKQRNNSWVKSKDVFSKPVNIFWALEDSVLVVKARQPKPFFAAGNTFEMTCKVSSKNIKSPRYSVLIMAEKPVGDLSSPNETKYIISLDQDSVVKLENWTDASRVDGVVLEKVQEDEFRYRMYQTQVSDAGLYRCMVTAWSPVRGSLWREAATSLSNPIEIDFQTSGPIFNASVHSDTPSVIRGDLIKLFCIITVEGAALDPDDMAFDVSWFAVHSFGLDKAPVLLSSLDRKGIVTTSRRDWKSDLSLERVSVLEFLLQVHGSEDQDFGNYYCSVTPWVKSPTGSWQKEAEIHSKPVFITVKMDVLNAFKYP

[7] = target: T7, ADP296
T7 chain: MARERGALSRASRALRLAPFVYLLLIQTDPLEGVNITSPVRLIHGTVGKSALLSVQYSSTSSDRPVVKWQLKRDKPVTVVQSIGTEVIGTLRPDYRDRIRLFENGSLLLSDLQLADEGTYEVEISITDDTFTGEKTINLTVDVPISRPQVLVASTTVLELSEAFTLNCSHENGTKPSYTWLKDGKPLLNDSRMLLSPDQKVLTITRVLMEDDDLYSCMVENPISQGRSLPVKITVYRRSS

[8] = target: T8, ADP104
T8 chain: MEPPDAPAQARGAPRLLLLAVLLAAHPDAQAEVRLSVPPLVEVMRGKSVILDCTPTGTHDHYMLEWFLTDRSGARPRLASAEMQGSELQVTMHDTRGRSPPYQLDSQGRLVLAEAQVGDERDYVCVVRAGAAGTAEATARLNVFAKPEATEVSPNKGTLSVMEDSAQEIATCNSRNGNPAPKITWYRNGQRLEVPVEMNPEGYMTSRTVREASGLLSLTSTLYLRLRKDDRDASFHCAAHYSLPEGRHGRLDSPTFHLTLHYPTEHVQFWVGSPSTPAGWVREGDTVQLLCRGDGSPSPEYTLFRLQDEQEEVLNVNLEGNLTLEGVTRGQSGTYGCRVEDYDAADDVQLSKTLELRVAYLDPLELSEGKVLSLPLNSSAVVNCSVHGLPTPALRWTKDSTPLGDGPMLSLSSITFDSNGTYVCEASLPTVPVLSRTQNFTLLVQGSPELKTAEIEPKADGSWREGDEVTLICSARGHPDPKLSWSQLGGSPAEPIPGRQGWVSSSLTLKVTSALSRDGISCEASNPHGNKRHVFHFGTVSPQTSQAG

[9] = target: ADP132
[10] = target: ADP110

B1: ADP70 (protein)
chain: FENAIKKTKNQENNLALLPIKSTEEEKDDIKNGKDIKKEIDNDKENIKTNNAKDHSTYIKSYLNTNVNDGLKYLFIPSHNSFIKKYSVFNQINDGMLLNEKNDVKNNEDYKNVDYKNVNFLQYHFKELSNYNIANSIDILQEKEGHLDFVIIPHYTFLDYYKHLSYNSIYHKSSTYGKCIAVDAFIKKINEAYDKVKSKCNDIKNDLIATIKKLEHPYDINNKNDDSYRYDISEEIDDKSEETDDETEEVEDSIQDTDSNHAPSNKKKNDLMNRAFKKMMDEYNTKKKKLIKCIKNHENDFNKICMDMKNYGTNLFEQLSCYNNNFCNTNGIRYHYDEYIHKLILSVKSKNLNKDLSDMTNILQQSELLLTNLNKKMGSYIYIDTIKFIHKEMKHIFNRIEYHTKIINDKTKIIQDKIKLNIWRTFQKDELLKRILDMSNEYSLFITSDHLRQMLYNTFYSKEKHLNNIFHHLIYVLQMKFNDVPIKMEYFQTYKKNKPLTQ
modifications: bait human Fc-tagged dimer; N-glycosylation sequons mutated in Plasmodium baits
For B1, the binding score [1] was 7.62, the binding score [2] was 6.35 and the binding score [3] was 4530. It also gave a binding score [4] of 6.6.

B2: ADP222 (protein)
chain: NVVAPKSAEAVHTLTAKLDTENKAHQKYIDIINGVFSENMENFVFSITTSNGFTCSINKLDVIFDNKVTGMQKVFSDENVQYIKEASLEFKNNLLEYMKGVMPSENDFSNVRKEFQKVCVKYFSELRRKFFQIYRDPNNKNQNEDNVDNHMNIEEISQEFFSGFNPFGTMKIRKEQNPDLSQKDSLILNENNNDALTSADQKNNNMVPMENRAFSYSQQSSHVVSFDGHDEHVEQQEQHSGDNTQEDKDQLMDLPFNKDKVFSTFLKNVALLIEGNCAEAQQQAQEQTQEQTEEQEEEQNEKEIESDKQVQKDGEQKENDVQKKQKANAFTIQFSSSLSRKHISTTCNAASGNVFLRKGNKPFEHFNSPNFENMMKGVFGIIQNPFENGQPTFPFFKNINSISGIGNVDIPKNFMNDFLNNGNDQNTPISS
modifications: bait human Fc-tagged dimer; N-glycosylation sequons mutated in Plasmodium baits
B2 showed a binding score [5] of 6.14.

B3: ADP233 (protein)
chain: SPGNDNNNVNNDGVVHVLSKNIDVKNLQGTFYEIATNAADKIFPGLACRCTKYEFSGLKRDGNLGYVLINFACARNFIFGEKKSEMTFKLILNKPLDENTATVEEFNAAIYLVQGNQQILLNGNINIIYAELNEQNEFEHLILGGQKSIEPMIIMSKYRTVLLDTYNKLINSLYLAGYEPSLLTWPFIIQTDQTFCD
modifications: bait human Fc-tagged dimer; N-glycosylation sequons mutated in Plasmodium baits
For B3, the binding score [6] was 5.97, the binding score [7] was 6.11 and the binding score [8] was 7.73.

B4: ADP190 (protein)
chain: IQLHSVNYAPLNYIEIGDTLSNKVGELWHSHLNSFIDIVSTKVVNKLEDDLSNGNNLEKFMILLEDDADIFDASAYEGKNLALIQTEFIRKLKDKFKNSKFGQKLKKLGSKAKEKLLSLYQKHKGKLRHFFSILLKSLVIPIAVQFIRKNLNKWKQRTLEATQKLDEQSKNIAQPIINRLYNSFEDKIEEYSQENKINVEDELNALGQLDKDKQDIQKLEEQEKALLQ
modifications: bait human Fc-tagged dimer; N-glycosylation sequons mutated in Plasmodium baits
With B4 the binding score [9] was 11.3 and the binding score [10] was 11.4.
